Experimental data as given in US20240350597A1, “PROTEASE INHIBITORS” (University College Dublin, priority 2023, published 2024).

Biological target: Cathepsin L (UniProt P07711)
Experiment: cell-based or functional assay

Q: With “Wild Type SerpinB3 (from UniProt P29508 1-390)” as the substance, how does the CatL inhibition (residual activity on Z-FR-AMC after 2 min incubation with serpin, 1:5 protease:serpin) read?
A: 95%
